# Assays:
# [1] = substrate: O=C(O)[C@H]1O[C@@H](Oc2ccc3nc(C4=N[C@@H](C(=O)O)CS4)sc3c2)[C@H](O)[C@@H](O)[C@@H]1O; assay: Beta-glucuronidase (GUS) assay; assay type: biochemical, human; conditions: other: 50 mM MES, pH 6.3
# Description: The source of the human enzyme was Sigma-Aldrich. GUS was incubated with the substrate in 50 mM MES, pH 6.3, for 15 minutes.
# [2] = substrate: CNCCCOc1ccc2nc(C3=N[C@@H](C(=O)O)CS3)ccc2c1; assay: Two-step luminescent FMO 3 assay; assay type: biochemical, human; conditions: other: fit of Table 33
# [3] = substrate: CNCCCOc1ccc2c(C)cc(=O)oc2c1; assay: Fluorogenic MAO B substrate assay; assay type: biochemical, human; conditions: other: fit of Table 31
# Description: (§1) The fluorescent signal was then measured (excitation/emission=355/460 nm) on a Fluoroskan Ascent plate fluorometer.
# (§2) This 90 μl contained 35 μl 200 mM Tricine pH 8.3, 35 μl 200 mM Tricine pH 8.7 (or water), 10 μl 200 mM MgSO4, and 10 μl of each substrate dilution.
# [4] = substrate: CNCCCOc1ccc2nc(C3=N[C@@H](C(=O)O)CS3)ccc2c1; assay: Two-step bioluminogenic MAO B substrate assay; assay type: biochemical, human; conditions: other: fit of Tables 23-24
# [5] = substrate: NCCCOc1ccc2nc(C3=N[C@@H](C(=O)O)CS3)sc2c1; assay: Two-step bioluminogenic MAO B substrate assay; assay type: biochemical, human
# [6] = substrate: CNCCCOc1ccc2c(C)cc(=O)oc2c1; assay: Fluorogenic MAO A substrate assay; assay type: biochemical, human; conditions: other: fit of Table 31
# Description: as §1, §2
# [7] = substrate: CNCCCOc1ccc2nc(C3=N[C@@H](C(=O)O)CS3)ccc2c1; assay: purified protein, by the assay type
# [8] = substrate: NCCCOc1ccc2nc(C3=N[C@@H](C(=O)O)CS3)sc2c1; assay: purified protein, by the assay type; conditions: other: fit of Tables 23-24
protein,measurement,setting,value
"beta-glucuronidase (GUS) (Homo sapiens) (protein, purchased Sigma-Aldrich) LQGGMLYPQESPSRECKELDGLWSFRADFSDNRRRGFEEQWYRRPLWESGPTVDMPVPSSFNDISQDWRLRHFVGWVWYEREVILPERWTQDLRTRVVLRIGSAHSYAIVWVNGVDTLEHEGGYLPFEADISNLVQVGPLPSRLRITIAINNTLTPTTLPPGTIQYLTDTSKYPKGYFVQNTYFDFFNYAGLQRSVLLYTTPTTYIDDITVTTSVEQDSGLVNYQISVKGSNLFKLEVRLLDAENKVVANGTGTQGQLKVPGVSLWWPYLMHERPAYLYSLEVQLTAQTSLGPVSDFYTLPVGIRTVAVTKSQFLINGKPFYFHGVNKHEDADIRGKGFDWPLLVKDFNLLRWLGANAFRTSHYPYAEEVMQMCDRYGIVVIDECPGVGLALPQFFNNVSLHHHMQVMEEVVRRDKNHPAVVMWSVANEPASHLESAGYYLKMVIAHTKSLDPSRPVTFVSNSNYAADKGAPYVDVICLNSYYSWYHDYGHLELIQLQLATQFENWYKKYQKPIIQSEYGAETIAGFHQDPPLMFTEEYQKSLLEQYHLGLDQKRRKYVVGELIWNFADFMTEQSPTRVLGNKKGIFTRQRQPKSAAFLLRERYWKIANETRYPHSVAKSQCLENSLFT",Km,[1],180 ± 30 µM
"human recombinant flavin-containing monooxygenase 3 (FMO 3) (Homo sapiens) (protein, purchased Sigma Chemical Company F-5053; host or cells: baculovirus infected insect cells (microsomes)) MGKKVAIIGAGVSGLASIRSCLEEGLEPTCFEKSNDIGGLWKFSDHAEEGRASIYKSVFSNSSKEMMCFPDFPFPDDFPNFMHNSKIQEYIIAFAKEKNLLKYIQFKTFVSSVNKHPDFATTGQWDVTTERDGKKESAVFDAVMVCSGHHVYPNLPKESFPGLNHFKGKCFHSRDYKEPGVFNGKRVLVVGLGNSGCDIATELSRTAEQVMISSRSGSWVMSRVWDNGYPWDMLLVTRFGTFLKNNLPTAISDWLYVKQMNARFKHENYGLMPLNGVLRKEPVFNDELPASILCGIVSVKPNVKEFTETSAIFEDGTIFEGIDCVIFATGYSFAYPFLDESIIKSRNNEIILFKGVFPPLLEKSTIAVIGFVQSLGAAIPTVDLQSRWAAQVIKGTCTLPSMEDMMNDINEKMEKKRKWFGKSETIQTDYIVYMDELSSFIGAKPNIPWLFLTDPKLAMEVYFGPCSPYQFRLVGPGQWPGARNAILTQWDRSLKPMQTRVVGRLQKPCFFFHWLKLFAIPILLIAVFLVLT",Km,[2],200 ± 20 µM
"human recombinant monoamine oxidase B (MAO B) (Homo sapiens) (protein, purchased Sigma Chemical Company M-7441; host or cells: baculovirus infected insect cells (microsomes)) MSNKCDVVVVGGGISGMAAAKLLHDSGLNVVVLEARDRVGGRTYTLRNQKVKYVDLGGSYVGPTQNRILRLAKELGLETYKVNEVERLIHHVKGKSYPFRGPFPPVWNPITYLDHNNFWRTMDDMGREIPSDAPWKAPLAEEWDNMTMKELLDKLCWTESAKQLATLFVNLCVTAETHEVSALWFLWYVKQCGGTTRIISTTNGGQERKFVGGSGQVSERIMDLLGDRVKLERPVIYIDQTRENVLVETLNHEMYEAKYVISAIPPTLGMKIHFNPPLPMMRNQMITRVPLGSVIKCIVYYKEPFWRKKDYCGTMIIDGEEAPVAYTLDDTKPEGNYAAIMGFILAHKARKLARLTKEERLKKLCELYAKVLGSLEALEPVHYEEKNWCEEQYSGGCYTTYFPPGILTQYGRVLRQPVDRIYFAGTETATHWSGYMEGAVEAGERAAREILHAMGKIPEDEIWQSEPESVDVPAQPITTTFLERHLPSVPGLLRLIGLTTIFSATALGFLAHKRGLLVRV",Km,[3],16 ± 1 µM
same,Km,[4],650 µM
same,Km,[5]; other: fit of Table 21,24 ± 1 µM
same,Km,[5]; other: fit of Tables 23-24,1880 µM
"human recombinant monoamine oxidase A (MAO A) (Homo sapiens) (protein, purchased Sigma Chemical Company M-7316; host or cells: baculovirus infected insect cells (microsomes)) MENQEKASIAGHMFDVVVIGGGISGLSAAKLLTEYGVSVLVLEARDRVGGRTYTIRNEHVDYVDVGGAYVGPTQNRILRLSKELGIETYKVNVSERLVQYVKGKTYPFRGAFPPVWNPIAYLDYNNLWRTIDNMGKEIPTDAPWEAQHADKWDKMTMKELIDKICWTKTARRFAYLFVNINVTSEPHEVSALWFLWYVKQCGGTTRIFSVTNGGQERKFVGGSGQVSERIMDLLGDQVKLNHPVTHVDQSSDNIIIETLNHEHYECKYVINAIPPTLTAKIHFRPELPAERNQLIQRLPMGAVIKCMMYYKEAFWKKKDYCGCMIIEDEDAPISITLDDTKPDGSLPAIMGFILARKADRLAKLHKEIRKKKICELYAKVLGSQEALHPVHYEEKNWCEEQYSGGCYTAYFPPGIMTQYGRVIRQPVGRIFFAGTETATKWSGYMEGAVEAGERAAREVLNGLGKVTEKDIWVQEPESKDVPAVEITHTFWERNLPSVSGLLKIIGFSTSVTALGFVLYKYKLLPRS",Km,[6],21 ± 1 µM
same,Km,[7]; other: fit of Table 22,1560 ± 130 µM
same,Km,[7]; other: fit of Tables 23-24,1700 µM
same,Km,[8],1320 µM
